Reference: article PMC7895384

What was measured:
[1] = target: Six4-HA (HA-tagged Six4, Six4-3xHA) (Drosophila); test: co-IP; Six4-HA, Myc-Erm and Flag-PntP1 all three co-expressed in S2 cells; IP with anti-HA or anti-Flag antibody; 150mM or 1200mM NaCl; % co-IP quantified from band intensities, normalized by the IPed protein, n = 3 (S7F Fig)
[2] = target: Six4-HA (HA-tagged Six4, Six4-3xHA) (Drosophila); test: co-IP; two of the three tagged proteins co-expressed in S2 cells; graded concentrations (150mM to 1200mM) of NaCl in the 1% NP-40 lysis buffer (S7C-E Fig; lanes with two proteins of S7F Fig, % co-IP quantified from band intensities, n = 3)

% co-IPed Myc-Erm with the anti-HA antibody (1200mM NaCl, Flag-PntP1 co-expressed) [1]: 13.6% | % co-IPed Myc-Erm with the anti-HA antibody (1200mM NaCl, without Flag-PntP1) [2]: 6.7%
Substance: Myc-Erm (Myc-tagged Earmuff) (from UniProt Q9VQ56 1-611) (natural protein)
